B1: Zinc finger homeobox protein 3, residues 2643 to 2698; numbered along this chain, Q15911 (parent)
chain: RLRTTITPEQLEILYQKYLLDSNPTRKMLDHIAHEVGLKKRVVQVWFQNTRARERK

Variants of: B1
Test: abundance fitness (aPCA) (normalised: wild type 0, dead -1); higher = more abundant; growth selection in yeast, the domain comes from the species named
Conditions: Homo sapiens

Abundance fitness of substitutions, site by site:
D21: L -0.553; R -0.803; I -0.533; F -0.373; M -0.22; K -0.924; G -0.321; C -0.426; Q -0.255; V -0.407; W -0.741; P -0.604; E -0.008; Y -0.675; S -0.417
A33: V -0.492; E -0.759; Y -0.822; P -0.746; Q -0.845; W -0.728; T -0.43; C -0.127; D -0.866; N -0.906; L -0.872; G -0.398; M -0.832; K -0.804; S -0.06
H34: D 0.035; W -0.095; F -0.114; K 0.213; I -0.632; E 0.099; P -0.739; A -0.123; Y -0.012; M -0.092; G 0.062; S 0.009; N -0.044; Q -0.017; L -0.225; C -0.075
S22: C -0.136; W -0.491; G -0.034; Y -0.624; V -0.395; H -0.24; T -0.315; R -0.526; K -0.178; I -0.589; M -0.247; D 0.075; A -0.003; Q 0.037; L -0.643; N -0.273; P 0.099
E35: C -0.351; K -0.356; T 0.063; Q -0.016; I -0.029; S -0.224; G -0.487; W -0.509; H -0.274; V -0.255; N -1.01; L -0.205; A -0.127; F -0.557; M -0.417; Y -0.556
L20: I -0.056; C -0.022; D -0.226; T -0.057; E -0.079; H -0.286; N -0.27; R -0.331; Y -0.466; A -0.211; W -0.227; K -0.147; Q 0.109; M 0.093; P -1.08; V 0.002; F -0.111; G -0.049
P24: V -0.785; C -0.96; G -0.857; E -0.78; H -0.687; T -0.957; R -0.828; Y -0.548; M -0.777; K -0.935; I -0.747; L -0.79; W -0.165; S -0.764; D -0.634; N -0.623; Q -0.354; A -0.82; F -0.644
R26: S 0.428; I 0.323; A 0.434; E 0.419; H 0.324; N 0.339; L 0.266; P 0.35; K 0.123; G 0.386; W 0.401; D 0.458; F 0.029; C 0.306; V 0.383; Y -0.031
G37: C -0.297; V -0.812; Q -0.147; N -0.306; F -0.55; P -0.637; R -0.27; W -0.92; A -0.366; M -0.53; Y -0.919; I -0.891; K -0.007; T -0.825; D -0.384; H -0.404
L38: H -0.737; G -0.972; E -0.869; C -0.329; I -0.786; F -0.819
H31: I 0.009; C 0.096; F -0.068; Q 0.169; N 0.315; D 0.348; K -0.166; M 0.073; A 0.109; S 0.215; Y -0.014; G 0.198; V 0.134; P -0.836; R -0.237; W -0.251; E 0.265; L 0.056
L19: R -0.087; M 0.039; H -0.14; V -0.12; P -0.535; D -0.211; Y -0.339; S -0.154; F -0.36; Q -0.233; A -0.075; W -0.365; C -0.032; K -0.022; I -0.583; G -0.175; N -0.422; E -0.254
N23: W -0.155; F 0.149; K -0.335; S -0.113; Q 0.066; R -0.118; L -0.389; P -0.965; H -0.354; Y -0.1; I -0.414; T -0.379; D -0.336; V -0.37; G -0.276; C -0.594; A -0.23
T25: E -0.081; N -0.206; A -0.243; I -0.502; H -0.448; Y -0.908; V -0.349; S -0.267; Q -0.505; F -0.605; W -0.951; P -0.145; K -0.506; C -0.191; G -0.394; R -0.753; L -0.552; D 0.189; M -0.256
K27: E 0.243; M -0.177; C -0.342; A 0.018; P 0.16; V -0.007; G 0.077; R -0.444; D 0.229; Y -0.241; T 0.036; I -0.028; N -0.246; F -0.293
M28: I -0.557
V36: D -0.853; R -0.82; K -0.985; L -0.145; M -0.427; H -0.964; Y -0.896; F -0.568; G -0.732; E -1.11; N -0.761; A -0.114; T 0.053; S -0.134; P -1; I 0.191; W -0.495
L29: R -0.544; S -0.488; P -0.8; I 0.167; G -0.683; H -0.766; A -0.552; T -0.273; Q -0.254; D -0.805; V -0.043; C -0.056; K -0.695; F 0.069; N -0.724; E -0.159; M 0.028
Y18: I -0.62; E -0.948; C -0.696; R -0.865; P -0.847; G -0.899; D -0.96; K -0.662; W -0.401; F 0.251; M -0.373; T -1.03; L -0.552; V -0.644; N -0.705; Q -0.698; H -1.03
K17: R 0.099; P -1.05; W -0.056; Y -0.096; T -0.59; V -0.52
I32: R -1.01; Y -0.378; A -0.886; E -0.9; M -0.466; S -0.735; C -0.749; L -0.123; D -1.02; F -0.108; V -0.078; P -0.915; N -1.25; H -0.527; K -0.807; T -0.274; W -0.129; G -0.77
D30: F -0.446; C -0.486; T -0.312; I -0.071; P -0.543; K -0.214; G -0.073; E -0.29; A -0.046; W -0.442; Y -0.269; V -0.223; R -0.124; L -0.435; S -0.108; Q 0.1; H 0.007; M -0.314
